This passage reports Kd, koff and kon results from PMC7755208, “Design of novel granulopoietic proteins by topological rescaffolding” (PLoS Biology, 2020).

In experiment [1] the target is T1, recombinant human G-CSF receptor (R&D systems 381-GR-050/CF) (human, UniProt Q99062 25-333).
T1 construct: granulocyte colony-stimulating factor receptor, human, recombinant; As recalled, this catalogue item is a soluble extracellular form of the receptor; also called rhG-CSFR; granulocyte colony-stimulating factor receptor; source: bought: R&D systems 381-GR-050/CF
T1 sequence: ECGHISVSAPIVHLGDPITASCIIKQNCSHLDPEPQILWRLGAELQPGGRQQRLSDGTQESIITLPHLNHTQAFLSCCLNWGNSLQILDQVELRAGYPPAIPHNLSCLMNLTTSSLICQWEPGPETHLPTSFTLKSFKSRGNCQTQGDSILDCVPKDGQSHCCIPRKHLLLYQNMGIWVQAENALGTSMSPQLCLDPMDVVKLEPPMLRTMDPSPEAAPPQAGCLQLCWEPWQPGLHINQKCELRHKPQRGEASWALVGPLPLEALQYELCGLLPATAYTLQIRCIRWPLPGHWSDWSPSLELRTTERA
Put plainly: SPR; Biacore X100, multi-cycle kinetics; G-CSFR immobilised on a CM5 chip by amine coupling; analytes in 10 mM HEPES pH 7.4, 150 mM NaCl, 3.4 mM EDTA, 0.005% Tween-20; 25°C, 30 uL/min; 1:1 model, ka and kd from a linear fit of kobs against concentration. The following applies: both partners purified. In general terms: Surface plasmon resonance follows binding to a sensor surface in real time, without labels.

For experiment [2], the target named is T1, recombinant human G-CSF receptor (R&D …). Described as above. Particulars: both partners purified. This is another data set of the same source.

B1: recombinant human granulocyte colony-stimulating factor (USP RS Filgrastim) (ligand, UniProt P09919-2 31-204, looked up)
chain: TPLGPASSLPQSFLLKCLEQVRKIQGDGAALQEKLCATYKLCHPEELVLLGHSLGIPWAPLSSCPSQALQLAGCLSQLHSGLFLYQGLLQALEGISPELGPTLDTLQLDVADFATTIWQQMEELGMAPALQPTQGAMPAFASAFQRRAGGVLVASHLQSFLEVSYRVLRHLAQP
notes: granulocyte colony-stimulating factor, human, as filgrastim; printed size 19 kDa; The SPR methods name filgrastim; also called rhG-CSF; G-CSF; source: bought: USP RS Filgrastim, Sigma-Aldrich 1270435
As for B1, in experiment [1], the Kd (as a rule, the constant that tells how readily two partners part at equilibrium) is 1.4 nM. Also, in experiment [2], the dissociation constant Kd stood at 1.1 nM; the koff (in general, the rate constant with which the complex falls apart) stood at 0.00049 s⁻¹; the kon (usually the rate constant with which the complex forms) was 300000 M⁻¹ s⁻¹.
